According to the Immune Epitope Database (IEDB):

How the values were obtained:
Assay in all cases: IEDB peptide-MHC binding, purified MHC/competitive/radioactivity; filed as Kd, often an IC50 or EC50 that approximates it; ≥ and ≤ were set here for values at or beyond the usual limits of such assays
HLA-B*51:01 = molecular target: HLA-B*51:01
HLA-B*53:01 = molecular target: HLA-B*53:01
HLA-B*54:01 = molecular target: HLA-B*54:01
HLA-B*07:02 = molecular target: HLA-B*07:02
HLA-B*35:01 = molecular target: HLA-B*35:01
HLA-A*02:06 = molecular target: HLA-A*02:06
HLA-A*68:02 = molecular target: HLA-A*68:02
[1] = source organism: Lymphocytic choriomeningitis virus (strain Armstrong)
[2] = source organism: Dengue virus 1 Brazil/97-11/1997
[3] = source organism: Dengue virus 4 Philippines/H241/1956
[4] = source organism: Mammarenavirus brazilense
[5] = source organism: Triticum aestivum
[6] = source organism: SARS coronavirus Tor2
[7] = source organism: Vaccinia virus WR

For MPEWANFKF, the Kd (HLA-B*51:01; [1]) was ≥ 28.2 µM, the Kd (HLA-B*53:01; [1]) was 0.0135 µM and the Kd (HLA-B*54:01; [1]) was 1.37 µM. It also gave a Kd (HLA-B*07:02; [1]) of 0.769 µM and a Kd (HLA-B*35:01; [1]) of 0.00929 µM.

Sequence MSIPATLFV has a Kd (HLA-A*02:06; [2]) of 0.0121 µM and a Kd (HLA-A*68:02; [2]) of 0.00063 µM.

In the case of MSTYGWNIV, the Kd (HLA-A*68:02; source organism: Dengue virus 3 Martinique/1243/1999) is reported as 0.0394 µM.

Work on MVMTTTANWL yielded a Kd (HLA-A*68:02; [3]) of 0.00651 µM.

MVRILIGFLV showed a Kd (HLA-A*68:02; [3]) of 0.401 µM.

In the case of NPIVLHNGM, the Kd (HLA-B*51:01; [4]) is reported as ≥ 32.4 µM, the Kd (HLA-B*53:01; [4]) is reported as 10.5 µM and the Kd (HLA-B*54:01; [4]) is reported as ≥ 78.1 µM. For the same sequence, the Kd (HLA-B*07:02; [4]) was 1.76 µM and the Kd (HLA-B*35:01; [4]) was 0.44 µM.

With NPQAQGSV the Kd (HLA-B*51:01; [5]) was 6.06 µM, the Kd (HLA-B*53:01; [5]) was ≥ 87.7 µM and the Kd (HLA-B*54:01; [5]) was 10.9 µM. The Kd (HLA-B*07:02; [5]) was 3.66 µM and the Kd (HLA-B*35:01; [5]) was ≥ 87.8 µM.

PPALNCYWPL was tested, and the Kd (HLA-B*51:01; [6]) was 1.19 µM, the Kd (HLA-B*53:01; [6]) was ≥ 69.9 µM and the Kd (HLA-B*54:01; [6]) was ≥ 37.9 µM. For the same sequence, the Kd (HLA-B*07:02; [6]) was 12.7 µM and the Kd (HLA-B*35:01; [6]) was ≥ 57.9 µM.

For QLKGQGKSRL, the Kd (HLA-A*02:06; source organism: Homo sapiens) was ≥ 42.2 µM and the Kd (HLA-A*68:02; source organism: Homo sapiens) was ≥ 60 µM.

QPFLQPQLPY was tested, and the Kd (HLA-B*51:01; [5]) was 14.5 µM, the Kd (HLA-B*53:01; [5]) was 4.58 µM and the Kd (HLA-B*54:01; [5]) was ≥ 46.6 µM. For the same sequence, the Kd (HLA-B*07:02; [5]) was 0.95 µM and the Kd (HLA-B*35:01; [5]) was 0.0286 µM.

QPGLLSYVI showed a Kd (HLA-B*51:01; [4]) of 2.26 µM, a Kd (HLA-B*53:01; [4]) of 0.308 µM and a Kd (HLA-B*54:01; [4]) of 5.06 µM. It also gave a Kd (HLA-B*07:02; [4]) of 12.2 µM and a Kd (HLA-B*35:01; [4]) of 1.1 µM.

With QPQQLPQF the Kd (HLA-B*51:01; [5]) was ≥ 87.3 µM, the Kd (HLA-B*53:01; [5]) was ≥ 87.7 µM and the Kd (HLA-B*54:01; [5]) was ≥ 87.7 µM. For the same sequence, the Kd (HLA-B*07:02; [5]) was 1.46 µM and the Kd (HLA-B*35:01; [5]) was ≥ 87.8 µM.

For RPEMQEFEY, the Kd (HLA-B*51:01; [7]) was ≥ 77.5 µM, the Kd (HLA-B*53:01; [7]) was 0.0167 µM and the Kd (HLA-B*54:01; [7]) was ≥ 78.1 µM. The Kd (HLA-B*07:02; [7]) was ≥ 68.8 µM and the Kd (HLA-B*35:01; [7]) was 0.00809 µM.

In the case of RPLMESELV, the Kd (HLA-B*51:01; [6]) is reported as 2.37 µM, the Kd (HLA-B*53:01; [6]) is reported as ≥ 42.2 µM and the Kd (HLA-B*54:01; [6]) is reported as ≥ 47.5 µM. For the same sequence, the Kd (HLA-B*07:02; [6]) was 8.2 µM and the Kd (HLA-B*35:01; [6]) was ≥ 24.4 µM.

For SASSMVNGV, the Kd (HLA-A*68:02; source organism: Dengue virus 2 Jamaica/1409/1983) was 0.0243 µM.

Work on SLPLPNFSSL yielded a Kd (HLA-A*02:06; source organism: Homo sapiens) of 0.641 µM and a Kd (HLA-A*68:02; source organism: Homo sapiens) of 0.00119 µM.

In the case of SPKFTTSLSL, the Kd (HLA-B*51:01; [6]) is reported as 1.09 µM, the Kd (HLA-B*53:01; [6]) is reported as 1.3 µM and the Kd (HLA-B*54:01; [6]) is reported as ≥ 28.8 µM. The Kd (HLA-B*07:02; [6]) was 0.00839 µM and the Kd (HLA-B*35:01; [6]) was 7.92 µM.

In the case of SSALLWMASV, the Kd (HLA-A*68:02; [2]) is reported as 0.0467 µM.

TSAGVNMCTL gave a Kd (HLA-A*68:02; [2]) of 0.00697 µM.

TSNHGVTATI gave a Kd (HLA-A*68:02; source organism: Dengue virus 4 Thailand/0348/1991) of 0.129 µM.

For YPLGQGSF, the Kd (HLA-B*51:01; [5]) was 1.14 µM, the Kd (HLA-B*53:01; [5]) was 1.66 µM and the Kd (HLA-B*54:01; [5]) was ≥ 53.8 µM. For the same sequence, the Kd (HLA-B*07:02; [5]) was 5.55 µM and the Kd (HLA-B*35:01; [5]) was 1.52 µM.

In the case of YTPEGIIPTL, the Kd (HLA-A*02:06; [3]) is reported as 0.0213 µM and the Kd (HLA-A*68:02; [3]) is reported as 0.264 µM.

YVVIGLLFMI gave a Kd (HLA-A*02:06; [2]) of 0.14 µM and a Kd (HLA-A*68:02; [2]) of 0.102 µM.
